# Test results reported in patent publication US20150197558A1 (published 2015).
# Where a chain is given by its changes, count along the chain named.
# T1: IHF from Haemophilus influenzae (Haemophilus influenzae, UniProt P43723 1-96)
# T1 construct: also called IHF (Hi); H. influenzae; not shown: poly-histidine tag
# T1 sequence: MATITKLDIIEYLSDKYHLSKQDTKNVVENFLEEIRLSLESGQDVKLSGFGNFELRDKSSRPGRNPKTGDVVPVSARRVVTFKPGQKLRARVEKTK
# T2: IHF from Klebsiella pneumoniae (Klebsiella pneumoniae, UniProt A6TAI1 1-99)
# T2 construct: also called IHF (Kp); K. pneumoniae
# T2 sequence: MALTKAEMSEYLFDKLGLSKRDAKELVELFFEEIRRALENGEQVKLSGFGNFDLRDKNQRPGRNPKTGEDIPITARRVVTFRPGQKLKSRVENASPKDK
# T3: IHF from Pseudomonas aeruginosa (Pseudomonas aeruginosa, UniProt Q51472 2-100)
# T3 construct: also called IHF (Pa); P. aeruginosa; not shown: poly-histidine tag
# T3 sequence: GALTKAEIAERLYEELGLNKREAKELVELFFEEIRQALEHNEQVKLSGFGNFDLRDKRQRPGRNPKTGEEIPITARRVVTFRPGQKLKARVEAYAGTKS
# T4: IHF from Staphylococcus aureus (Staphylococcus aureus, UniProt Q5HFV0 1-90)
# T4 construct: also called IHF (Sa); HU; not shown: poly-histidine tag
# T4 sequence: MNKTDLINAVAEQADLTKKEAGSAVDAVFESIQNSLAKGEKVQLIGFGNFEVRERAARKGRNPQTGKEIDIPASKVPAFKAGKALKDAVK
# T5: IHF from Acinetobacter baumannii (Acinetobacter baumannii, UniProt A3M2B0 1-98)
# T5 construct: also called Ab
# T5 sequence: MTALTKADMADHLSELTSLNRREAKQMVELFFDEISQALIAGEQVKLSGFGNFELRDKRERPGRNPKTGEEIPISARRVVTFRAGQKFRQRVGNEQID
# B1: TRL1068 (antibody, V domains shown)
# VH: QVQLVESGPGLVKPSETLSLTCRVSGDSNRPSYWSWIRQAPGKAMEWIGYVYDSGVTIYNPSLKGRVTISLDTSKTRFSLKLTSVIAADTAVYYCARERFDRTSYKSWWGQGTQVTVSS
# VL: DIVLTQAPGTLSLSPGDRATLSCRASQRLGGTSLAWYQHRSGQAPRLILYGTSNRATDTPDRFSGSGSGTDFVLTISSLEPEDFAVYYCQQYGSPPYTFGQGTTLDIK
# B2: TRL1337 (antibody, V domains shown)
# VH: QVQLLESGPGLVKPSETPSLTCTVSGGSIRSYYWSWIRQPPGKGLEWIGYIYYSGSTNYNPSLKSRVTISVDMSKNQFSLKLSSVTAADTAMYYCARVYGGSGSYDFDYWGQGTLVTVSS
# VL: DIVLTQSPSASGSPGQSVTISCTGTSSDVGGYNYVSWYQQLPGKAPKLMIYEVTKRPSGVPDRFSGSKSGNTASLTVSGLQAEDEADYYCSSFAGSNNHVVFGGGTKLTVL
# B3: TRL1215 (antibody, V domains shown)
# VH: QVQLVESGTEVKNPGASVKVSCTASGYKFDEYGVSWVRQSPGQGLEWMGWISVYNGKTNYSQNFQGRLTLTTETSTDTAYMELTSLRPDDTAVYYCATDKNWFDPWGPGTLVTVSS
# VL: DIVMTQSPSASGSPGQSITISCTGTNTDYNYVSWYQHHPGKAPKVIIYDVKKRPSGVPSRFSGSRSGNTATLTVSGLQTEDEADYYCVSYADNNHYVFGSGTKVTVL
# B4: TRL1330 (antibody, V domains shown)
# VH: B3 VH
# VL: B3 VL with M4L
# B5: TRL1087 (antibody, V domains shown)
# VH: QVQLLESGPGLVRPSDTLSLTCTFSADLSTNAYWTWIRQPPGKGLEWIGYMSHSGGRDYNPSFNRRVTISVDTSKNQVFLRLTSVTSADTAVYFCVREVGSYYDYWGQGILVTVSS
# VL: DIEMTQSPSSLSASVGDRITITCRASQGISTWLAWYQQKPGKAPKSLIFSTSSLHSGVPSKFSGSGSGTDFTLTITNLQPEDFATYYCQQKWETPYSFGQGTKLDMIR
# B6: TRL1216 (antibody, V domains shown)
# VH: QVQLVESGGGVVQPGGSLRVSCAASAFSFRDYGIHWVRQAPGKGLQWVAVISHDGGKKFYADSVRGRFTISRDNSENTLYLQMNSLRSDDTAVYYCARLVASCSGSTCTTQPAAFDIWGPGTLVTVSS
# VL: DIMLTQPPSVSVSPGQTARITCSGDALPKKYTYWYQQKSGQAPVLLIYEDRKRPSEIPERFSAFTSWTTATLTITGAQVRDEADYYCYSTDISGDIGVFGGGTKLTVL
# B7: TRL1230 (antibody, V domains shown)
# VH: QVQLVQSGGGLVKPGGSLRLSCGASGFNLSSYSMNWVRQAPGKGLEWVSSISSRSSYIYYADSVQGRFTISRDNAKNSLYLQMNSLRAEDTAIYYCARVSPSTYYYYGMDVWGQGTTVTVSS
# VL: DIVLTQPSSVSVSPGQTARITCSGDELPKQYAYWYQQKPGQAPVLVIYKDNERPSGIPERFSGSSSGTTVTLTISGVQAEDEADYYCQSADSSGTYVVFGGGTKLTVL
# B8: TRL1218 (antibody, V domains shown)
# VH: QVQLLESGADMVQPGRSLRLSCAASGFNFRTYAMHWVRQAPGKGLEWVAVMSHDGYTKYYSDSVRGQFTISRDNSKNTLYLQMNNLRPDDTAIYYCARGLTGLSVGFDYWGQGTLVTVSS
# VL: DIVLTQSASVSGSPGQSITISCTGTSSDVGGYNYVSWYQQHPGKAPKLMIYDVTTRPSGVSDRFSGSKSGNTASLTISGLQAEDEADYYCSSYSSGSTPALFGGGTQLTVL
# B9: TRL1232 (antibody, V domains shown)
# VH: QVQLVESGAEVKKPGALVKVSCKASGYTFSGYYMHWVRQAPGQGLEWMGWINPKSGGTKYAQKFQGRVTMTRDTSISTAYMELSRLRSDDTAVYFCARGGPSNLERFLERLQPRYSYDDKYAMDVWGQGTTVTVSS
# VL: DIVMTQSPGTLSLSPGARATLSCRASQSVSSIYLAWYQQKPGQAPRLLIFGASSRATGIPDRFSGSGSGTDFTLTISRLEPEDFAVYYCQQYGSSPYTFGQGTKLEIKR
# B10: TRL1070 (antibody, V domains shown)
# VH: QVQLVQSGGTLVQPGGSLRLSCAASGFTFSYYSMSWVRQAPGKGLEWVANIKHDGTERNYVDSVKGRFTISRDNSEKSLYLQMNSLRAEDTAVYYCAKYYYGAGTNYPLKYWGQGTRVTVSS
# VL: DILMTQSPSSLSASVGDRVTITCRASQGIRNDLGWYQQKPGKAPKLLIYAASSLQSGVPSRFSGSGSGTDFTLTISSLQPEDFATYYCLQDYNYPLTFGGGTKVEIKR
# B11: TRL1335 (antibody, V domains shown)
# VH: QVQLVESGAEVKKPGESLKISCKGSGYNFTSYWIGWVRQMPGKGLEWMGVIYPDDSDTRYSPSFKGQVTISADKSISTAFLQWSSLKASDTAVYHCARPPDSWGQGTLVTVSS
# VL: DIVMTQSPATLSVSPGERATLSCRASQSVSSNLAWYQQKPGLAPRLLIVGASNRATGIPARFSGSGSGTEFTLTISSLQSEDFAFYYCQQYNNWPFTFGPGTKVDVKR
# What was measured:
# [1] = biological target: T1, IHF from Haemophilus influenzae; test: BLI, ForteBio Octet QK, ratio of on and off rates
# [2] = biological target: T2, IHF from Klebsiella pneumoniae; test: BLI, ForteBio Octet QK, ratio of on and off rates
# [3] = biological target: T3, IHF from Pseudomonas aeruginosa; test: BLI, ForteBio Octet QK, ratio of on and off rates
# [4] = biological target: T4, IHF from Staphylococcus aureus; test: BLI, ForteBio Octet QK, ratio of on and off rates
# [5] = biological target: IHF target of the pH table of Example 7 (homolog not stated); test: pH dependence of binding, pH 2.5; ELISA per legend of FIGS. 6A-6B
# [6] = biological target: IHF target of the pH table of Example 7 (homolog not stated); test: pH dependence of binding, pH 3.5; ELISA per legend of FIGS. 6A-6B
# [7] = biological target: IHF target of the pH table of Example 7 (homolog not stated); test: pH dependence of binding, pH 4.5; ELISA per legend of FIGS. 6A-6B
# [8] = biological target: IHF target of the pH table of Example 7 (homolog not stated); test: pH dependence of binding, pH 5.5; ELISA per legend of FIGS. 6A-6B
# [9] = biological target: IHF target of the pH table of Example 7 (homolog not stated); test: pH dependence of binding, pH 6.5; ELISA per legend of FIGS. 6A-6B
# [10] = biological target: IHF target of the pH table of Example 7 (homolog not stated); test: pH dependence of binding, pH 7.5; ELISA per legend of FIGS. 6A-6B
# [11] = biological target: T1, IHF from Haemophilus influenzae; test: ELISA, antigen coated, half-maximal binding concentration printed as Affinity (pM)
# [12] = biological target: T2, IHF from Klebsiella pneumoniae; test: as above
# [13] = biological target: T3, IHF from Pseudomonas aeruginosa; test: as above
# [14] = biological target: T4, IHF from Staphylococcus aureus; test: as above
# [15] = biological target: T5, IHF from Acinetobacter baumannii; test: as above
# [16] = biological target: T1, IHF from Haemophilus influenzae; test: ELISA, antigen coated
# [17] = biological target: T2, IHF from Klebsiella pneumoniae; test: ELISA, antigen coated
# [18] = biological target: T3, IHF from Pseudomonas aeruginosa; test: ELISA, antigen coated
# [19] = biological target: T5, IHF from Acinetobacter baumannii; test: ELISA, antigen coated
# [20] = biological target: T4, IHF from Staphylococcus aureus; test: ELISA
# [21] = biological target: T1, IHF from Haemophilus influenzae; test: ELISA
# [22] = biological target: T2, IHF from Klebsiella pneumoniae; test: ELISA
# [23] = biological target: T3, IHF from Pseudomonas aeruginosa; test: ELISA
# [24] = biological target: peptide 19 of the set of overlapping 15-mer peptides from the IHF of Staphylococcus aureus (Staphylococcus aureus); test: peptide binding on streptavidin plates
# [25] = biological target: peptide 20 of the set of overlapping 15-mer peptides from the IHF of Staphylococcus aureus (Staphylococcus aureus); test: peptide binding on streptavidin plates
# [26] = biological target: peptide 26 of the set of overlapping 15-mer peptides from the IHF of Staphylococcus aureus (Staphylococcus aureus); test: peptide binding on streptavidin plates
binder,measurement,setting,value
B1,Kd,[1],350000 pM
same,Kd,[2],7000 pM
same,Kd,[3],1000 pM
same,Kd,[4],1000 pM
same,Kd,[5],2700 pM
same,Kd,[6],1200 pM
same,Kd,[7],23.6 pM
same,Kd,[8],9 pM
same,Kd,[9],7.6 pM
same,Kd,[10],7 pM
same,EC50,[11],5000 pM
same,EC50,[12],11 pM
same,EC50,[13],11 pM
same,EC50,[14],15 pM
same,EC50,[15],10 pM
B2,binding result,[16],no binding
same,binding result,[17],no binding
same,binding result,[18],no binding
same,binding result,[19],no binding
B3,OD,[20],1.4 OD
B4,EC50,[14],23 pM
same,EC50,[15],17 pM
B5,OD,[21],0.06 OD
same,OD,[22],0.06 OD
same,OD,[23],0.06 OD
same,OD,[20],0.14 OD
B6,OD,[21],0.06 OD
same,OD,[20],0.5 OD
B7,OD,[21],0.06 OD
same,OD,[22],0.07 OD
same,OD,[23],0.3 OD
same,OD,[20],0.1 OD
B8,OD,[21],0.04 OD
same,OD,[22],0.06 OD
same,OD,[23],0.09 OD
B9,OD,[21],0.1 OD
same,OD,[22],0.1 OD
same,OD,[23],0.2 OD
same,OD,[20],0.2 OD
B10,OD,[21],0.11 OD
same,OD,[20],0.3 OD
B11,binding result,[24],no binding
same,binding result,[25],no binding
same,binding result,[26],no binding
